What all share (conditions): remark: other sources report otherwise
In assay [1] the target is alpha-synuclein fibrils, P37840. Kind of assay: SPR, captured mAb; alpha-synuclein fibrils. For orientation: Surface plasmon resonance follows binding to a sensor surface in real time, without labels.
For assay [2], the target named is monomeric alpha-synuclein, P37840. The experiment in a line: SPR, captured mAb.
Assay [3] has as its target alpha-synuclein fibrils, P37840. The experiment in a line: SPR, captured mAb.
Assay [4] addresses monomeric alpha-synuclein, P37840. The experiment in a line: SPR, captured mAb; alpha-synuclein monomers.
The target of assay [5] is alpha-synuclein fibrils, P37840. Kind of assay: SPR single-cycle kinetics, antibody captured on anti-mouse chip, alpha-synuclein fibrils injected.
Assay [6] deals with monomeric alpha-synuclein, P37840. Kind of assay: SPR, captured mAb; steady-state model.
For assay [7] the target is unchanged. The experiment in a line: SPR, captured mAb; heterogeneous ligand model.
Assay [8] has the same target. The experiment in a line: SPR single-cycle kinetics, antibody captured on anti-mouse chip, monomeric alpha-synuclein injected.

As a reminder, the Kd is the constant that tells how readily two partners part at equilibrium. What is called koff is the first-order rate constant of dissociation. A higher koff goes with a short-lived complex. As usually defined, the kon is the second-order rate constant of association. The low end stands for slower complex formation, the high end for faster complex formation.

Positions count from the first letter of the chain named.

B1: ACI-7079-2603F3-Ab1 (antibody, V domains shown)
VH: EVQLVESGGGLVQPKGSLKLSCAASGFTFNTYAMHWVRQAPGKGLEWVARIRSKGSNYATYYADSVKDRFTISRDDSQSMLYLQMNNLKTEDTAMYYCVRGGGDSWFAYWGQGTLVTVSA
VL: QIVLTQSPAIMSASPGERVTMTCTASSSVSYMHWYQQKSGTSPKRWIYDTSKLASGVPARFSGSGSGASYTLTISSMEAEDAATYYCQQWNSNPPTFGGGTQLAIK
On to B1, for which the Kd stood at 0.002 nM in assay [1] and 293 nM in assay [4]. In addition, the koff in assay [2] turned out to be 0.0149 s⁻¹; in assay [3], 1.6e-08 s⁻¹. Also, the on-rate constant (kon) in assay [2] is 50800 M⁻¹ s⁻¹; in assay [3], 7310 M⁻¹ s⁻¹.

B2: ACI-7067-1113D10-Ab1 (antibody, V domains shown)
VH: EVQLVESGGGLVQPKGSLKLSCAASGFTFNTYALHWVRQAPGKGLEWVARIRSKSSNYATYYADSVKDRFTISRDDSQSMLYLQMNNLKTEDTGMYYCVRGGVSPFDYWGQGTTLTVSS
VL: B1 VL with R18K, T24S, A68T, T71S, A82S, N91S, S92N, Q102K, A104E
In turn, B2 showed a dissociation constant (Kd) in assay [1] of 0.06 nM. In assay [3], the off-rate constant (koff) is 4.16e-07 s⁻¹ and the on-rate constant (kon) is 6940 M⁻¹ s⁻¹.

B3: ACI-7079-2501D10-Ab1 (antibody, V domains shown)
VH: EVQLVESGGGLVQPKGSLKVSCAASGFTFKTYAMHWVRQAPGKGLEWVARIRSENSNFAKYYADSVKDRFTISRDDSQSMLYLQMNNLKTEDTAMYYCVRGYNGSSLDYWGQGTTLTVSS
VL: B1 VL with S14F, T24S, S30N, S64G, A68T, T71S, S76N, N91R, Q102K, A104E
On to B3, for which, in assay [2], the Kd is 1.6 nM, the koff is 0.00043 s⁻¹ and the kon is 264000 M⁻¹ s⁻¹. In assay [3], this molecule gave a Kd of 24.7 nM, a koff of 0.000427 s⁻¹ and a kon of 17300 M⁻¹ s⁻¹.

B4: ACI-7067-1101C8-Ab2 (antibody, V domains shown)
VH: EVQLVESGGGLVQPKGSLKLSCAASGFSFNIYAMNWVRQAPGKGLEWVARIRSKSNNYATYYADSVKDRFTISRADSESMLYLQMNNLKTEDTAMYYCVRVGLRFYAMDYWGQGTSVTVSS
VL: DVLMTQTPLSLPVSLGDQASISCRSSQSIVHSNGNTYLEWYLQKPGQSPKLLIYKVSNRFSGVPDRFSGSGSGTDFTLKISRVEAEDLGVYYCFQGSQGPLTFGAGTKLELK
Consider B4, for which the dissociation constant (Kd) in assay [5] came to 1.6 nM; in assay [6], 43.7 nM; in assay [3], 2.9 nM; in assay [8], 38.8 nM. The off-rate constant (koff) in assay [5] is 0.00024 s⁻¹; in assay [3] it was 0.000283 s⁻¹; in assay [7], 0.0265 s⁻¹; in assay [8] it was 0.019 s⁻¹. In addition, the results for the kon in assay [3] and in assay [7] were 176000 M⁻¹ s⁻¹ and 55500 M⁻¹ s⁻¹, respectively.

B5: ACI-7079-2501G2-Ab2 (antibody, V domains shown)
VH: B4 VH with S28N, I31T, S53T, Y58F, D64H, A75D, V101Q, R104A, F105Y
VL: B4 VL with A19V, S28T
In assay [2], B5 yielded an equilibrium dissociation constant (Kd) of 2.9 nM, an off-rate (koff) of 0.00084 s⁻¹ and a kon of 291000 M⁻¹ s⁻¹. In addition, in assay [3], the Kd amounted to 27.8 nM, the off-rate (koff) was found to be 0.000528 s⁻¹ and the on-rate constant (kon) came out at 19000 M⁻¹ s⁻¹.

B6: ACI-8033-18D12-Ab1 (antibody, V domains shown)
VH: QVQLQQPGAELVKPGASVKMSCKASGYTFTSYWITWVRQRPGQGLDWIGDIYPGGGVTNYNEKFKTKATLTVDTSSSTAYMHLSSLTSEDSAVYFCATAQTTFAHWGQGTLVTVSA
VL: B4 VL with S28N, V30A, S32N, Q98H, G99V, L101R, A105G, L111I
With B6, in assay [2], the off-rate (koff) was 0.26 s⁻¹ and the association rate constant (kon) came to 8.25e+07 M⁻¹ s⁻¹. The dissociation constant (Kd) in assay [4] worked out at 3.2 nM.

B7: ACI-7088-4317A4-Ab1 (antibody, V domains shown)
VH: EVQLQQSGAELVRPGASVKLSCTASGFNIKDDYMHWVKQRPEQGLEWIGWIDPENGDTEYASKFQGKATMTADTSSNTAYLQLSSLTSEDTAVYYCKTWGTTQALFPYWGQGTLVTVSA
VL: DIVMTQSQKFMYTSVGDRVSITCKASQNVGNAVGWYQQKAGQSPKLLIHSASNRYTGVPDRFTGTGSGTDFTLTINNMQSEDLADYFCQQYRSYPLTFGAGTKLELK
Regarding B7, the dissociation constant (Kd) was 3 nM in assay [1] and 3660 nM in assay [4]. The off-rate (koff) in assay [2] is 0.012 s⁻¹; in assay [3], 0.000998 s⁻¹. Further, the results for the kon in assay [2] and in assay [3] were 3280 M⁻¹ s⁻¹ and 337000 M⁻¹ s⁻¹, respectively.

B8: ACI-7079-2503C6-Ab1 (antibody, V domains shown)
VH: DVQLQESGPGLVKPSQSLSLTCSVTGYSITSGYYWNWIRLFPGNKLEWLGYINYDGSNNFNPSLKNRISITRDTSKNQFFLKLNSVTSEDTATYFCLRGDWDWGQGTLVTVSA
VL: not shown
On to B8, for which, in assay [2], the dissociation rate constant (koff) was determined as 0.00012 s⁻¹ and the kon came out at 40500 M⁻¹ s⁻¹. In assay [4], this molecule had a Kd of 3 nM.

For the origin of these results see US20250340623A1.
